The record followed here is patent publication US20250381305A1, “METHOD FOR TREATING A PARKINSON'S DISEASE” (SINEUGENE THERAPEUTICS CO., LTD., priority 2022, published 2025).

Sequences and labels used below:
B1: coiled-coil single domain: TRIM72 truncation with the coiled-coil domain only, 135aa-232aa (probably SEQ ID NO: 5) (protein)
chain: QQKLQLQEACMRKEKSVAVLEHQLVEVEETVRQFRGAVGEQLGKMRVFLAALEGSLDREAERVRGEAGVALRRELGSLNSYLEQLRQMEKVLEEVADK
modifications: human TRIM72 coiled-coil domain (135-232 aa)
B2: TRIM72: full-length TRIM72 protein with Ring finger, B-box, coiled-coil and PRYSPRY domains, overexpressed by lentivirus or scAAV9 (protein, listed as Homo sapiens)
chain: MSAAPGLLHQELSCPLCLQLFDAPVTAECGHSFCRACLGRVAGEPAADGTVLCPCCQAPTRPQALSTNLQLARLVEGLAQVPQGHCEEHLDPLSIYCEQDRALVCGVCASLGSHRGHRLLPAAEAHARLKTQLPQQKLQLQEACMRKEKSVAVLEHQLVEVEETVRQFRGAVGEQLGKMRVFLAALEGSLDREAERVRGEAGVALRRELGSLNSYLEQLRQMEKVLEEVADKPQTEFLMKYCLVTSRLQKILAESPPPARLDIQLPIISDDFKFQVWRKMFRALMPALEELTFDPSSAHPSLVVSSSGRRVECSEQKAPPAGEDPRQFDKAVAVVAHQQLSEGEHYWEVDVGDKPRWALGVIAAEAPRRGRLHAVPSQGLWLLGLREGKILEAHVEAKEPRALRSPERRPTRIGLYLSFGDGVLSFYDASDADALVPLFAFHERLPRPVYPFFDVCWHDKGKNAQPLLLVGPEGAEA
B3: Coiled-PRYSPRY: TRIM72 truncation with coiled-coil and PRYSPRY domains, expressed by scAAV9 (probably SEQ ID NO: 11) (protein)
chain: QQKLQLQEACMRKEKSVAVLEHQLVEVEETVRQFRGAVGEQLGKMRVFLAALEGSLDREAERVRGEAGVALRRELGSLNSYLEQLRQMEKVLEEVADKPQTEFLMKYCLVTSRLQKILAESPPPARLDIQLPIISDDFKFQVWRKMFRALMPALEELTFDPSSAHPSLVVSSSGRRVECSEQKAPPAGEDPRQFDKAVAVVAHQQLSEGEHYWEVDVGDKPRWALGVIAAEAPRRGRLHAVPSQGLWLLGLREGKILEAHVEAKEPRALRSPERRPTRIGLYLSFGDGVLSFYDASDADALVPLFAFHERLPRPVYPFFDVCWHDKGKNAQPLLLV
modifications: expressed by scAAV9; TRIM72 coiled-coil domain plus PRYSPRY domain (135-470aa)
B4: TRIM40: other TRIM protein overexpressed in N2a cell line by scAAV9 infection, as comparison (protein, UniProt Q3UWA4 1-246, looked up)
chain: MGSLDKDNQDICPICLDPLKEAVSTDCRHLFCRMCLTQHMDKASVSGILSCPVCRKPCSEGVLGDNYICHTHQKRVRRFCEASGHLLCEECLQSPEHQSHTELSIENAISHYKERLNRRSRKLRKDLGNLQQLKAQEKKMLQALQVDCECHRLRTDLQNQDQTKEQLKALPWHWLDQEDLPEEVAKIFSFSEAVTQLSILVSGLERMAKDLDASTLKDASDLLDRSAPQKLEGLLSRVSPAGPKLS
modifications: full-length
notes: other TRIM protein overexpressed in N2a cell line by scAAV9 infection, as comparison
B5: PRYSPRY single domain: TRIM72 truncation with the PRYSPRY domain only, 278aa-470aa (probably SEQ ID NO: 6) (protein)
chain: RKMFRALMPALEELTFDPSSAHPSLVVSSSGRRVECSEQKAPPAGEDPRQFDKAVAVVAHQQLSEGEHYWEVDVGDKPRWALGVIAAEAPRRGRLHAVPSQGLWLLGLREGKILEAHVEAKEPRALRSPERRPTRIGLYLSFGDGVLSFYDASDADALVPLFAFHERLPRPVYPFFDVCWHDKGKNAQPLLLV
modifications: human TRIM72 PRYSPRY domain (278-470 aa)
B6: C242A: Flag-tagged TRIM72 mutant, cysteine at position 242 substituted by alanine; blocks oligomer formation (protein, UniProt Q1XH17 1-477, looked up, variant C242A)
Tripartite motif-containing …: MSAAPGLLRQELSCPLCLQLFDAPVTAECGHSFCRACLIRVAGEPAADGTVACPCCQAPTRPQALSTNLQLSRLVEGLAQVPQGHCEEHLDPLSIYCEQDRTLVCGVCASLGSHRGHRLLPAAEAQARLKTQLPQQKMQLQEACMRKEKTVAVLEHQLVEVEETVRQFRGAVGEQLGKMRMFLAALESSLDREAERVRGDAGVALRRELSSLNSYLEQLRQMEKVLEEVADKPQTEFLMKFALVTSRLQKILSESPPPARLDIQLPVISDDFKFQVWKKMFRALMPALEELTFDPSSAHPSLVVSSSGRRVECSDQKAPPAGEDTRQFDKAVAVVAQQLLSQGEHYWEVEVGDKPRWALGVMAADASRRGRLHAVPSQGLWLLGLRDGKILEAHVEAKEPRALRTPERPPARIGLYLSFADGVLAFYDASNPDVLTPIFSFHERLPGPVYPIFDVCWHDKGKNAQPLLLVGPEQEQA
modifications: Flag tag
B7: C14A: Flag-tagged TRIM72 mutant, cysteine at position 14 substituted by alanine; E3 ligase inactive (protein, UniProt Q1XH17 1-477, looked up, variant C14A)
Tripartite motif-containing …: MSAAPGLLRQELSAPLCLQLFDAPVTAECGHSFCRACLIRVAGEPAADGTVACPCCQAPTRPQALSTNLQLSRLVEGLAQVPQGHCEEHLDPLSIYCEQDRTLVCGVCASLGSHRGHRLLPAAEAQARLKTQLPQQKMQLQEACMRKEKTVAVLEHQLVEVEETVRQFRGAVGEQLGKMRMFLAALESSLDREAERVRGDAGVALRRELSSLNSYLEQLRQMEKVLEEVADKPQTEFLMKFCLVTSRLQKILSESPPPARLDIQLPVISDDFKFQVWKKMFRALMPALEELTFDPSSAHPSLVVSSSGRRVECSDQKAPPAGEDTRQFDKAVAVVAQQLLSQGEHYWEVEVGDKPRWALGVMAADASRRGRLHAVPSQGLWLLGLRDGKILEAHVEAKEPRALRTPERPPARIGLYLSFADGVLAFYDASNPDVLTPIFSFHERLPGPVYPIFDVCWHDKGKNAQPLLLVGPEQEQA
modifications: Flag tag

“Also recorded” adds a separate entry of the source.

The first assay has as its system N2a cell line. Description: CCK-8 cell viability after H2O2 treatment, expression by scAAV9 infection. It counts as cell-based. The note with it: scAAV9 infection MOI 10,000 vg/cell, H2O2 300 μM, 1 hour. The procedure:
(§1) Cell viability was assessed using CCK-8. Cells were seeded in a 96-well plate at a density of 1.5×10^3cells per well for Arsenite treatment or 7×10^3 cells per well for H2O2 treatment. Arsenite (Sigma) was added into each well at concentration of 0.125 mM, 0.25 mM or 0.5 mM, and washed the cells after 2 hours incubation at 37° C. For H2O2-treatment experiment, scAAV9 infection (estimated multiplicity of infection (MOI): 10,000 vg/cell) was done for 24 hours at 17 hours after cell seeding. Then, H2O2 was added into each well at concentration of 300 μM, and washed the cells after 1 hours incubation at 37° C. When the cell has been processed by Arsenite or H202. a total of 10 μL of CCK-8 solution (Yeasen) was added to each well. After another 2 hours of incubation at 37° C., the optical density (OD) value of each well was measured using a microplate reader with an excitation wavelength of 450 nm. The cell viability of 293 FT was calculated. The experiment was repeated at least three times to obtain the mean value.
To further investigate which key domains of TRIM72 protein are necessary to protect neurons, different domain-deleted TRIM72 were constructed and overexpressed in N2a cell line by scAAV9 infection (FIG. 1). CCK-8 was used to measure the cell viability after H2O2 treatment. Indeed, cell viability was decreased after H2O2 treatment (FIG. 10).
CCK-8 was used to measure the cell viability after H2O2 treatment.
For the molecule B1, the “cell viability under H2O2 stress (protective effect)” value (“cell viability under H2O2 stress” for short) is listed as “not the coiled-coil single domain was sufficient to protect cells from oxidative stress”.
Regarding B2, the “cell viability under H2O2 stress” value is reported as “elicit protective effects from oxidative stress”.
Regarding B3, the “cell viability under H2O2 stress” value is reported as “sufficient to protect cells from oxidative stress”.
As to B4, the “cell viability under H2O2 stress” value was “rather than TRIM40 elicit protective effects from oxidative stress”.
B5: the “cell viability under H2O2 stress” value is “sufficient to protect cells from oxidative stress”.

A further assay deals with 293 FT. The assay is described as follows: Cell viability after stress challenge, TRIM72 point mutants. It counts as cell-based. The note with it: Flag-tagged point mutants vs wildtype; oxidative stress. The procedure: For TRIM72 stable expression cell line construction, DNA fragments of the series of Flag-tagged TRIM72 mutants or domain deletion or single domain were amplified from the corresponding TRIM72 expression vector by PCR and inserted into pLJM1-EGFP lentiviral vector between BsrGI and EcoRI sites to generate the series of Flag-tagged TRIM72 mutants or domain deletion or single domain fused with EGFP in lentiviral vector.
as §1, with “When the cell has been processed by Arsenite or H202. a total of 10 μL of CCK-8 solution (Yeasen) was added to each well.” left out, “The experiment was repeated at least three times to obtain the mean value.” left out
Previous study determined that TRIM72 senses changes in the oxidative environment and forms oligomer complex to complete membrane repair. […]
Consider B6, for which the “cell viability after stress challenge (protective effect of TRIM72 mutants)” value is listed as “abolished the anti-stress effect of TRIM72; also recorded: blocked TRIM72 protective effect”.
For the molecule B7, the “cell viability after stress challenge (protective effect of TRIM72 mutants)” value is “reserved equal protective effect to wildtype”.
